For assay [1], the target named is T1, human IL-23R (interleukin-23 receptor) (human, UniProt Q5VWK5 24-629).
T1 sequence (looked up): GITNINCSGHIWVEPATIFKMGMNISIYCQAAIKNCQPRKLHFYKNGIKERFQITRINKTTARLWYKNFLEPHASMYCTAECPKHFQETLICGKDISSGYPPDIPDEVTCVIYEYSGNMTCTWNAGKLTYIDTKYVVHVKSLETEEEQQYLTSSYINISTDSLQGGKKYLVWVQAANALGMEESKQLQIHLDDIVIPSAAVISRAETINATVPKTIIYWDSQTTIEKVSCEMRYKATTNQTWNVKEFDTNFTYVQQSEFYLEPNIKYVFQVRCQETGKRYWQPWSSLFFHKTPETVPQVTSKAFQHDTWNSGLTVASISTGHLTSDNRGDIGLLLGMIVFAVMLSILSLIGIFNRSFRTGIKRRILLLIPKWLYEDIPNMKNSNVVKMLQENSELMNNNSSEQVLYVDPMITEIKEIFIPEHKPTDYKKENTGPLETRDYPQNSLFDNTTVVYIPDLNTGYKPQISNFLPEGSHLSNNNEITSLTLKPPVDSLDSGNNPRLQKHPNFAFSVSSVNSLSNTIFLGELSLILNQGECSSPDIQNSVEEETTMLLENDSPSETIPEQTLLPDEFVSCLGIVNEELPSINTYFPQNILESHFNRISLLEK
The experiment in a line: cell-based or functional assay.

Assay [2] addresses T1, human IL-23R (interleukin-23 receptor). Kind of assay: cell-based or functional assay. The source holds these as a separate data set.

Bridges are numbered along the chain shown (N, C = ends). [ ]: non-standard residue; d: D form. Trp(7-Me) = Cc1cccc2c(C[C@H](N)C(=O)O)c[nH]c12; 2Nal = N[C@@H](Cc1ccc2ccccc2c1)C(=O)O; AEF = NCCOc1ccc(C[C@H](N)C(=O)O)cc1; αMeF = C[C@](N)(Cc1ccccc1)C(=O)O; Pen = CC(C)(S)[C@H](N)C(=O)O; αMeK = C[C@](N)(CCCCN)C(=O)O; 3Quin = not defined here; Ac5c = NC1(C(=O)O)CCCC1; Thp = NC1(C(=O)O)CCOCC1

Results on five molecules are retold here after patent US20220402983A1 (Janssen / Centocor, published 2022).

B1: Compound No. 93 (peptide)
peptide: Ac-[dR][Pen]NT[Trp(7-Me)]Q[Pen][AEF][2Nal][Ac5c]EN[αMeF]-NH2
modifications: disulfide 2-7
SMILES: CC(=O)N[C@H](CCCNC(=N)N)C(=O)N[C@@H]1C(=O)N[C@@H](CC(N)=O)C(=O)N[C@@H]([C@@H](C)O)C(=O)N[C@@H](Cc2c[nH]c3c(C)cccc23)C(=O)N[C@@H](CCC(N)=O)C(=O)N[C@H](C(=O)N[C@@H](Cc2ccc(OCCN)cc2)C(=O)N[C@@H](Cc2ccc3ccccc3c2)C(=O)NC2(C(=O)N[C@@H](CCC(=O)O)C(=O)N[C@@H](CC(N)=O)C(=O)N[C@@](C)(Cc3ccccc3)C(N)=O)CCCC2)C(C)(C)SSC1(C)C
As for B1, the “PBMC pSTAT3 IC50 (nM)” value in assay [1] came out at 4.6 nM.

B2: Compound No. 1 (peptide)
peptide: Ac-[Pen]NT[Trp(7-Me)]K(Ac)[Pen][AEF][3Quin][αMeK]K(Ac)N[dL]-NH2
modifications: disulfide 1-6; reading uncertain; also: printed as Ac-[Pen]-N-T-[W(7-Me)]-[Lys(Ac)]-[Pen]-Phe[4-(2-aminoethoxy)]-[3-Quin]-[a-MeLys]-[Lys(Ac)]-N-[(D)Leu)]-NH2
With B2, the “NK Cell Assay (nM), IC50, IFN-gamma after IL-23 and IL-18” value in assay [2] is 2.89 nM. In addition, the “pStat3 HTRF (nM), IC50, DB cells IL23R pSTAT3 cell assay” value in assay [1] worked out at 0.602 nM.

B3: Compound No. 95 (peptide)
peptide: Ac-[Pen]NTWK(Ac)[Pen][AEF][2Nal][αMeK]K(Ac)N[Thp]-NH2
modifications: disulfide 1-6
SMILES: CC(=O)NCCCC[C@@H]1NC(=O)[C@H](Cc2c[nH]c3ccccc23)NC(=O)[C@H]([C@@H](C)O)NC(=O)[C@H](CC(N)=O)NC(=O)[C@@H](NC(C)=O)C(C)(C)SSC(C)(C)[C@@H](C(=O)N[C@@H](Cc2ccc(OCCN)cc2)C(=O)N[C@@H](Cc2ccc3ccccc3c2)C(=O)N[C@@](C)(CCCCN)C(=O)N[C@@H](CCCCNC(C)=O)C(=O)N[C@@H](CC(N)=O)C(=O)NC2(C(N)=O)CCOCC2)NC1=O
For B3, the “PBMC pSTAT3 IC50 (nM)” value in assay [1] came to 22 nM.

B4: Compound No. 97 (peptide)
peptide: Ac-[dR][Pen]QTWQ[Pen][AEF][2Nal][Thp]EN[αMeF]-NH2
modifications: disulfide 2-7
SMILES: CC(=O)N[C@H](CCCNC(=N)N)C(=O)N[C@@H]1C(=O)N[C@@H](CCC(N)=O)C(=O)N[C@@H]([C@@H](C)O)C(=O)N[C@@H](Cc2c[nH]c3ccccc23)C(=O)N[C@@H](CCC(N)=O)C(=O)N[C@H](C(=O)N[C@@H](Cc2ccc(OCCN)cc2)C(=O)N[C@@H](Cc2ccc3ccccc3c2)C(=O)NC2(C(=O)N[C@@H](CCC(=O)O)C(=O)N[C@@H](CC(N)=O)C(=O)N[C@@](C)(Cc3ccccc3)C(N)=O)CCOCC2)C(C)(C)SSC1(C)C
In the case of B4, the “PBMC pSTAT3 IC50 (nM)” value in assay [1] stood at 31 nM.

B5: Compound No. 94 (peptide)
peptide: Ac-[dR][Pen]NT[Trp(7-Me)]K(Ac)[Pen][AEF][2Nal][Ac5c]EN[αMeF]-NH2
modifications: disulfide 2-7
SMILES: CC(=O)NCCCC[C@@H]1NC(=O)[C@H](Cc2c[nH]c3c(C)cccc23)NC(=O)[C@H]([C@@H](C)O)NC(=O)[C@H](CC(N)=O)NC(=O)[C@@H](NC(=O)[C@@H](CCCNC(=N)N)NC(C)=O)C(C)(C)SSC(C)(C)[C@@H](C(=O)N[C@@H](Cc2ccc(OCCN)cc2)C(=O)N[C@@H](Cc2ccc3ccccc3c2)C(=O)NC2(C(=O)N[C@@H](CCC(=O)O)C(=O)N[C@@H](CC(N)=O)C(=O)N[C@@](C)(Cc3ccccc3)C(N)=O)CCCC2)NC1=O
With B5, the “PBMC pSTAT3 IC50 (nM)” value in assay [1] was found to be 12 nM.
